Measured values reported in publication PMC8596624.

Target: UKPV, spike on pseudotyped lentivirus, Alpha (SARS-CoV-2 (B.1.1.7, Alpha)) (UniProt P0DTC2)
Assay: dot blot

TTCCGGTTAATTTATGCTCTACCCGTCCACCTACCGGAATTTTTTTTTTTTTTTTTTTTTTTTTTTTTTACGGGTTTGGCGTCGGGCCTGGCGGGGGGATAGTGCGGT [DSA1N5 (T30 linker)]
Kd: 2.3 pM
